Ends that are not written are not given here.
Key:
[1] = molecular target: T1, phosphorylated osteopontin (recombinant human OPN derived from HEK293 cells) (human, UniProt P10451 17-314, phosphorylated (sites not given; phosphorylation pattern in Supplementary Figure 2)); experiment: SPR; hBD3, SLPI and LL37 immobilised in different flow cells (50 ug/mL in 10 mM sodium acetate pH 5.5); dOPN or pOPN flowed at 10 uL/min; BIAcore X100, 25°C, HBS-EP (10 mM HEPES, 150 mM NaCl, 3 mM EDTA, 0.05% surfactant P20, pH 7.4); Langmuir model; conditions: both partners purified
T1 construct: osteopontin (OPN), human, recombinant, expressed in HEK293 cells; Commercial protein; From a eukaryotic host, so it probably differs from dOPN in glycosylation as well as in phosphorylation; also called pOPN; SPP1; source: bought: Peprotech (expressed in HEK293 cells; purity >= 97% according to the manufacturer)

[2] = molecular target: T2, dephosphorylated (non-phosphorylated) osteopontin (recombinant human OPN expressed in E. coli) (human, UniProt P10451 17-314); experiment: as above; conditions: both partners purified
T2 construct: osteopontin (OPN), human, recombinant, expressed in E. coli, non-phosphorylated; Commercial protein; Called 'dephosphorylated' but it is simply made in E. coli (non-phosphorylated), not treated with a phosphatase; also called dOPN; SPP1; source: bought: Abcam (expressed in E. coli; purity >= 90% according to the manufacturer)
T2 sequence (P10451 17-314): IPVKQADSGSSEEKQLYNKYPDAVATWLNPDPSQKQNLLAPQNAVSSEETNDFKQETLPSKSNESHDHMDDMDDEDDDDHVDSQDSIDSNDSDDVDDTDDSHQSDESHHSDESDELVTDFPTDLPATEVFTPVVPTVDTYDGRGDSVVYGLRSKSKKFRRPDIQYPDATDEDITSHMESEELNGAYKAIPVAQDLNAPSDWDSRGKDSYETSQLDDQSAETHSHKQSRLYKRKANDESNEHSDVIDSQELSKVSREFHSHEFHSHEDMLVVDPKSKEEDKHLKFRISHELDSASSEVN

T1 sequence (P10451 17-314): as above

| Kd [1] [nM] | Kd [2] [nM] | Binder |
| --- | --- | --- |
| 6.5 | 83.8 | GIINTLQKYYCRVRGGRCAVLSCLPKEEQIGKCSTRGRKCCRRKK (peptide, UniProt P81534 23-67, looked up, ends and bridges not checked; cysteine pairing not given here, human beta-defensin 3 (hBD-3), antimicrobial peptide; also called hBD3; hBD-3; source: bought: Abcam) [human β-defensin-3] |
| 6.25 | 4650 | secretory leukocyte protease inhibitor (natural protein, UniProt P03973 26-132, looked up, Commercial protein; also called SLPI; source: bought: Abcam) SGKSFKAGVCPPKKSAQCLRYKKPECQSDWQCPGKKRCCPDTCGIKCLDPVDTPNPTRRKPGKCPVTYGQCLMLNPPNFCEMDGQCKRDLKCCMGMCGKSCVSPVKA |
